The text below walks through data of article PMC3083827.

The target of the series is T1, Whn (FoxN1) DNA binding domain, WhnDBD (UniProt Q61575 271-367).
T1 sequence: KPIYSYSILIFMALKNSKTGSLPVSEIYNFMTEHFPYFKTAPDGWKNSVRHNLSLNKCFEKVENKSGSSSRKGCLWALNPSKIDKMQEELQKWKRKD
Briefly: EMSA. Background: In EMSA bound probe runs differently from free probe, usually more slowly.

B1: MUT (S1P with core CG to TA) (dsDNA)
DNA 1: CTCCTCCCTGCGCGAAGCGGAAGTGATACGAGGCGTAGCGGAAGTT
DNA 2: AACTTCCGCTACGCCTCGTATCACTTCCGCTTCGCGCAGGGAGGAG
As for B1, the binding result is recorded as “no binding”.
